Target: fetuin

## recombinant protein of H5 hemagglutinin ectodomain (H5HA)
  absorbance at 450 nm: 0.15 O.D. 450

Reference: patent US20190225979A1
